# Measurements taken from article PMC4052671, “Cloning, expression and characterization of a versatile Baeyer-Villiger monooxygenase from Dietzia sp. D5” (AMB Express, 2014).
# B1: BVMO4 (Dietzia sp. D5; P2A) (protein)
# chain: MAFTLPESKIAIDIDFDPDHLRQRFEADKQARERKDQLAQFQGLDDVLEVDDSDPFSEPITREPVTEELDALVLGGGFGGLTAGAYLTQNGVENFRLVEYGGDFGGTWYWNRYPGVQCDIESHIYMPLLEETGYVPSQRYADGSEIFEHAQRIGRHYGLYDRTYFQTRATHARWDEQIQRWEVTTDRGDRFVTRVLLRSNGALTKPQLPKVPGIGDFEGKIFHTSRWDYGYTGGSAAGDLAHLRDKRVAVVGTGATGVQVVPYLAQDAKELVVVQRTPSVVQPRNNRKTDPEWVASLTPGWQYERHDNFNGIISGHEVEGNLVDDGWTHLFPELTGQHLVDVPVGELPEGDQALVAELADMNLLMSAHARVDSIVTDPATADGLKPWFGYMCKRPCFNDEYLEAFNRPNVTLAASPAGIDGITSSGIVVAGTHYEVDCIIFATGFETGSGPAGIYGYDVIGREGHSMQEYFSEGARTFHGFFTHGFPNFVELGMSQTAYYVNFVYMLDRKARHAARLVRHLLDSGIGTFEPTAEAEADWVAEVRRSNEPREAYWGACTPGYYNGQGEVSKAVFRDVYNSSEIDFWNMIEAWWNSGRFEGLVFEPARDAVPVA
# notes: full length, 612 residues; His-tagged in pET-22b(+) (NcoI/NotI); E. coli BL21-CodonPlus(DE3)-RP; Ni-NTA; about 75 kDa on SDS-PAGE, predicted 72 kDa; FAD added after purification
# Key:
# CC(=O)Cc1ccccc1 = test: purified protein; type: biochemical, Dietzia sp. D5; conditions: co-substrate NADPH (60 μM in the standard assay), 50 mM sodium phosphate pH 7.5, 10 mM KCl, 25 °C
# BVMO4 = molecular target: T1, BVMO4 (Dietzia sp. D5, UniProt U5S003, P2A); test: activity recovery of purified enzyme on FAD addition; type: biochemical; conditions: FAD added to 10 μM after Ni-NTA purification; phenylacetone as substrate; pH 7.5
# T1 construct: full length, 612 residues; His-tagged in pET-22b(+) (NcoI/NotI); E. coli BL21-CodonPlus(DE3)-RP; Ni-NTA; about 75 kDa on SDS-PAGE, predicted 72 kDa; FAD added after purification
# purified protein [1] = substrate: NC(=O)C1=CN([C@@H]2O[C@H](COP(=O)(O)OP(=O)(O)OC[C@H]3O[C@@H](n4cnc5c(N)ncnc54)[C@H](OP(=O)(O)O)[C@@H]3O)[C@@H](O)[C@H]2O)C=CC1; test: purified protein; type: biochemical, Dietzia sp. D5; conditions: NADPH varied, fixed ketone substrate not stated, 50 mM sodium phosphate pH 7.5, 10 mM KCl, 25 °C, varied: cofactor
# purified protein [2] = substrate: CC1CCCCC1=O; test: purified protein; type: biochemical, Dietzia sp. D5; conditions: co-substrate NADPH (60 μM in the standard assay), 50 mM sodium phosphate pH 7.5, 10 mM KCl, 25 °C
molecule,measurement,setting,value
BVMO4 (Dietzia sp. D5; P2A),Km,CC(=O)Cc1ccccc1,829 ± 163 µM
same,Vmax,CC(=O)Cc1ccccc1,4.74 µM/min
same,kcat,CC(=O)Cc1ccccc1,0.634 ± 0.104 s⁻¹
same,kcat/Km,CC(=O)Cc1ccccc1,770 ± 30 M⁻¹ s⁻¹
Cc1cc2nc3c(=O)[nH]c(=O)nc-3n(C[C@H](O)[C@H](O)[C@H](O)COP(=O)(O)OP(=O)(O)OC[C@H]3O[C@@H](n4cnc5c(N)ncnc54)[C@H](O)[C@@H]3O)c2cc1C [FAD],activity recovery of purified enzyme on FAD addition,BVMO4,The enzyme lost its activity during the purification process but was recovered upon addition of FAD
B1,Km,purified protein [1],11 ± 2 µM
same,Vmax,purified protein [1],4.2 µM/min
same,kcat,purified protein [1],0.507 ± 0.057 s⁻¹
same,kcat/Km,purified protein [1],45100 ± 1520 M⁻¹ s⁻¹
same,Km,purified protein [2],507 ± 142 µM
same,Vmax,purified protein [2],3.07 µM/min
same,kcat,purified protein [2],0.37 ± 0.095 s⁻¹
same,kcat/Km,purified protein [2],730 ± 20 M⁻¹ s⁻¹
